Where a chain is given by its changes, count along the chain named. Names and notes keep the numbering of the source.

By EC50 is commonly meant the concentration at which the effect is half-maximal. A word on the IC50: it is the midpoint of a concentration-inhibition curve. Higher therefore signals a need for much substance.

To fix the notation:
B1: 191E12H8 (antibody, V domains shown)
VH: DVQLQESGPGLVKPSQSLSLTCSVTGYSITSGYYWNWIRQFPGNKLEWMGYISYDGSNNYNPSLKNRISITRDISKNQFFLKLNSVTTEDTATYYCARQIGLRRGAMDYWGQGTSVTVSS
VL: DIQMTQSSSYLSVSLGGRVTITCKASDHINTWLAWYQQKPGNAPRLLISGSTSLKAGVASRFSGSGSGKDYTLTITSLQTEDVATYYCQQYWGIPFTFGGGTKLEIK
notes: Murine hybridoma antibody
B2: 234G9C12 (antibody, V domains shown)
VH: B1 VH with I52T, L64F, Y109H
VL: B1 VL with T31N, K55R
notes: Murine hybridoma antibody; also called 234G4C12
B3: 149F2C10 (antibody, V domains shown)
VH: EVQLVESGGGLVQPKGSLKLSCAASGFTFNTYAMNWVRQAPGKGLEWVARIRSKSNFYATYYADSVKDRFTISRDDSQDMLYLQMNILKTEDTAIYYCVRGRDYGSSYAMDYWGQGTSVTVSS
VL: DIVMTQAAPSVPVTPGESVSISCRSSKSLLHSNGNTYLYWFLQRPGQSPQLLIYRMSNLASGVPDRFSGSGSGTAFTLRISRVEAEDVGVYYCMQHLEYPLTFGAGTKLELK
notes: also called 1491F2C0
B4: 160D1E3 (antibody, V domains shown)
VH: B3 VH with F57Y, I87N
VL: B3 VL
notes: Murine hybridoma antibody
B5: Hu348-8 (antibody, V domains shown)
VH: EVQLVESGGGLVQPGGSLKLSCATSGFSFSNYRMHWLRQASGKGLEWVGVITVKSDNYGANYAASVKGRFTISRDDSKNTAYLQMNSLKTEDTAVYYCSSLGRVAYWGQGTLVTVSS
VL: DIQMTQSPSSVSASVGDRVTITCKASQNVDTNVVWYQQKPGQSPKALIYSASSRYSGVPDRFSGSGSGTDFTLTISSLQPEDFATYYCQQHNSFPLTFGQGTKLEIK
notes: humanized IgG
B6: Hu348-9 (antibody, V domains shown)
VH: B5 VH with N79S, T80S, A81V, S99T
VL: B5 VL
notes: humanized IgG
B7: Hu149-11G1x (antibody)
heavy: EVQLVESGGGLVQPGGSLKLSCAASGFTFNTYAMNWVRQASGKGLEWVGRIRSKSNFYATAYAASVKGRFTISRDDSKNTAYLQMNSLKTEDTAVYYCTRGREYGSSYAMDYWGQGTLVTVSS
VL: DIVMTQSPLSLPVTPGEPASISCRSSKSLLHSNANTYLYWFLQKPGQSPQLLIYRMSNLASGVPDRFSGSGSGTDFTLKISRVEAEDVGVYYCMQHLEYPLTFGGGTKVELK
notes: Fc variant of Hu149-11; not shown: Fc variant 'G1x' is not defined in words
B8: Hu149-12G1x (antibody)
heavy: B7 heavy with R102K
VL: B7 VL
notes: Fc variant of Hu149-12; not shown: Fc variant 'G1x' is not defined in words
B9: Hu149-11G1m (antibody, human IgG1)
heavy: EVQLVESGGGLVQPGGSLKLSCAASGFTFNTYAMNWVRQASGKGLEWVGRIRSKSNFYATAYAASVKGRFTISRDDSKNTAYLQMNSLKTEDTAVYYCTRGREYGSSYAMDYWGQGTLVTVSSASTKGPSVFPLAPSSKSTSGGTAALGCLVKDYFPEPVTVSWNSGALTSGVHTFPAVLQSSGLYSLSSVVTVPSSSLGTQTYICNVNHKPSNTKVDKKVEPKSCDKTHTCPPCPAPELVGGPSVFLLPPKPKDTLMISRTPEVTCVVVDVSHEDPEVKFNWYVDGVEVHNAKTKPPEEQYNSTLRVVSVLTVLHQDWLNGKEYKCKVSNKALPAPIEKTISKAKGQPREPQVYTLPPSRDELTKNQVSLTCLVKGFYPSDIAVEWESNGQPENNYKTTPLVLDSDGSFFLYSKLTVDKSRWQQGNVFSCSVMHEALHNHYTQKSLSLSPGK
VL: B7 VL
B10: Hu149-12G1m (antibody, human IgG1)
heavy: B9 heavy with R102K
VL: B7 VL
notes: suffix G1m read as for Hu149-11G1m (L235V/F243L/R292P/Y300L/P396L)
B11: 499B1A5 (antibody, V domains shown)
VH: B3 VH with F57N, D79S, I87N, I95M, G101H, R102G, D103R, Y104S, S106Y, S107L
VL: DIVMTQAAFSNPVTLGTSASISCRSSKSLLHSNGITYLYWYLQKPGQSPQLLIYQMSNLASGVPDRFSSSGSGTDFTLRISRVEAEDVGVYYCAQSLELPLTFGAGTKLELK
notes: Murine hybridoma antibody (supernatant)

One test deals with T1, human CCR8 (human, UniProt P51685 1-355).
T1 construct: whole, on cells; In the β-arrestin assay CCR8 is fused to the ProLink (PK) tag; also called hCCR8; CHO-K1-human CCR8
Put plainly: FACS on CHO-K1-human CCR8 cells. On the procedure: (§1) The binding affinities of purified antibodies were determined on human CCR8 and cynomolgus CCR8 over-expressing cells. Briefly, CFSE (Life technology, Cat #: C34554) labeled CHO-K1-human CCR8 cells mixed with CHO-K1 cells, CFSE labeled HEK293-human CCR8 cells mixed with H1EK293 cells, or CFSE labeled H1EK293-cynomolgus CCR8 cells mixed with HTEK293 cells were used in the assay. The mix ratio was 1:1. A total of 5×10⁴ mixed cells for each well were seeded in 96-well plate and washed by FACS buffer (DPBS containing 10% FBS) once. Cells were incubated by series diluted purified hybridoma antibodies for 1 hour at 4° C. Antibodies were prepared with 3-fold serial dilution ranging from 200 nM to 0.003 nM in FACS buffer. After primary antibody incubation, cells were washed by FACS buffer for three times. Then, cells were stained with secondary antibody (Alexa Flu647-conj gated rabbit anti-mouse IgG, Jackson ImmunoResearch, #315606046) at 1:600 dilution in FACS buffer and incubated for 0.5 hour at 4° C. […] FlowJo software was used for analysis. Data was plotted as the logarithm of antibody concentration versus mean fluorescence signals. EC₅₀ values were calculated in GraphPad Prism 8 (GraphPad Software) using a log(agonist) vs. response-Variable slope (4 parameters) curve fit. […] The EC₅₀s of the selected antibodies on human CCR8 are less than 5 nM except those of 262C2G7 and 234G9C12. The EC₅₀s of the selected antibodies on cynomolgus CCR8 are less than 1 nM except that of 348E2D11 (Table 8).
T1 sequence (P51685 whole entry, the tested form may be a part): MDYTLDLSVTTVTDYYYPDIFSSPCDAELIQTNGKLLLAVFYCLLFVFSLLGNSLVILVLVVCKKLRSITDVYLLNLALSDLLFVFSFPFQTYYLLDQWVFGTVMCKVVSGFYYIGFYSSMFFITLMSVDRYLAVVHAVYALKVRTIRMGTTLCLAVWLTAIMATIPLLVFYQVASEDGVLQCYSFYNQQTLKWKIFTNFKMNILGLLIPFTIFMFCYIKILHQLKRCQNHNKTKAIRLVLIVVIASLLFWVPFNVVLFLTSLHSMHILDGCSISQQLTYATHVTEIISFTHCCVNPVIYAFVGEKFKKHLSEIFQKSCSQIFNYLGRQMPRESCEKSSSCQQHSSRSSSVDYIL
As for B1, the EC50 is 2250 pM and the “Max MFI” value was 24000 MFI.
The corresponding values for B2 are 18500 pM and 73900 MFI.
As to B3, the EC50 came out at 878 pM and the “Max MFI” value was 50700 MFI.
The corresponding values for B4 are 456 pM and 51500 MFI.

For the next test, the target named is T1, human CCR8. The test is described as follows: FACS on HEK293-human CCR8 cells. On the procedure: as §1
B1: the concentration giving a half-maximal response (EC50) turned out to be 1500 pM and the “Max MFI” value is 10700 MFI.
The corresponding values for B2 are 1420 pM and 9840 MFI.
On to B3, for which the EC50 came out at 346 pM and the “Max MFI” value worked out at 12000 MFI.
The matching figures for B4: 278 pM and 11900 MFI.

The target in a further test is T2, human CCR8 (human, UniProt P51685 1-355).
T2 construct: whole, on cells; also called hCCR8
The test is described as follows: FACS on HEK293-human CCR8 cells.
T2 sequence (P51685 whole entry, the tested form may be a part): as above
In the case of B5, it took 144 pM to reach a half-maximal effect (EC50) and the “Max MFI” value was determined as 4730 MFI.
The matching figures for B6: 182 pM and 4500 MFI.

A further test addresses T2, human CCR8. The test is described as follows: FACS on CHO-K1-human CCR8 cells.
For B7, the 50% effective concentration (EC50) came out at 115 pM and the “Max MFI” value came out at 200000 MFI.
The corresponding values for B8 are 92.7 pM and 195000 MFI.
Regarding B9, the EC50 is 112 pM and the “Max MFI” value worked out at 193000 MFI.
The corresponding values for B10 are 66.8 pM and 183000 MFI.

Another test concerns the target T3, cynomolgus CCR8 (cynomolgus, UniProt G7NYJ2 1-355).
T3 construct: whole, on cells; also called HEK293-Cynomolgus CCR8; ExpiCHO-S cynomolgus CCR8
The test is described as follows: FACS on HEK293-Cynomolgus CCR8 cells. As for the experimental part: as §1
T3 sequence (G7NYJ2 entry or part of it): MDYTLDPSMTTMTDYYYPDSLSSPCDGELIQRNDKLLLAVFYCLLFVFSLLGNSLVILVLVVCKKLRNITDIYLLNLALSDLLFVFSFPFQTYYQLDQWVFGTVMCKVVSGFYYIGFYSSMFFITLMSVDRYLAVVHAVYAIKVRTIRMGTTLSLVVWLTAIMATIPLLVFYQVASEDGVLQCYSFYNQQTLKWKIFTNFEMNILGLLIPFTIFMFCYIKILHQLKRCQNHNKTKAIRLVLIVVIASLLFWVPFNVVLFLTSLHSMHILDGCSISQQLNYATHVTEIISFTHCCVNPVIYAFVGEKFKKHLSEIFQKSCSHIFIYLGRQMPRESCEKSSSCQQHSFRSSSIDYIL
With B1, a half-maximal effect (EC50) was put at 397 pM and the “Max MFI” value was 5190 MFI.
The corresponding values for B2 are 212 pM and 4140 MFI.
The corresponding values for B3 are 479 pM and 8830 MFI.
The matching figures for B4: 422 pM and 8940 MFI.

For another test, the target named is T4, cynomolgus CCR8 (cynomolgus, UniProt G7NYJ2 1-355).
T4 construct: whole, on cells
The test is described as follows: FACS on HEK293-cynomolgus CCR8 cells.
T4 sequence (G7NYJ2 entry or part of it): as above
For the molecule B7, the EC50 came to 240 pM and the “Max MFI” value was determined as 4.52e+06 MFI.
B8: the EC50 is 150 pM and the “Max MFI” value was 3.65e+06 MFI.
On to B9, for which the EC50 was 217 pM and the “Max MFI” value is 4.34e+06 MFI.
For B10, the EC50 was 183 pM and the “Max MFI” value worked out at 3.24e+06 MFI.

A further test has as its target T4, cynomolgus CCR8. Put plainly: FACS on ExpiCHO-S-cynomolgus CCR8 cells.
For B5, the “Max MFI” value turned out to be 267 MFI.
The same measure, in the same setting: with B6 the figure was 148 MFI.

A further test concerns the target T2, human CCR8. Put plainly: FACS on HuT78 cells (endogenous human CCR8).
For the molecule B7, the 50% effective concentration (EC50) was determined as 427 pM and the “Max MFI” value amounted to 52700 MFI.
For B8, the concentration for a half-maximal effect (EC50) was determined as 313 pM and the “Max MFI” value was determined as 52900 MFI.
In the case of B9, the EC50 came out at 384 pM and the “Max MFI” value worked out at 45700 MFI.
The corresponding values for B10 are 209 pM and 55600 MFI.

Another test has as its target T3, cynomolgus CCR8. Put plainly: FACS, hybridoma supernatant on cynomolgus CCR8 cells. On the procedure:
(§2) Binding of hybridoma supernatant on CHO-K1-human CCR8 and ExpiCHO-S cynomolgus CCR8 cells. A total of 660 96-well plates were seeded and screened by FACS binding from the hybridoma derived from immunized animals.
(§3) To obtain antibodies cross-reactive to human and cynomolgus CCR8, hybridomas from mice immunized with human and cynomolgus CCR8 DNAs were screened by FACS. Briefly, 50 μL ExpiCHO-S cells transfected with human CCR8 or cynomolgus CCR8 (cell density: 2×10⁶ cells/mL, viability>90%) were incubated with equal volume hybridoma supernatant in 96 well plate (Corning) at 4° C. for 1 hour. […] Finally, the mixture was washed and resuspended with FACS buffer, and subjected to FACS analysis on BD FACS Celesta.
(Flow cytometry measures light scatter and fluorescence of single cells or particles in a stream.)
Turning to B1, the “Binding Ratio (GFP + MFI)/(GFP - MFI)” value stood at 91.4.
The same measure, in the same setting: with B2 the figure was 101; with B3, 98.2; with B11, 35.1.
Same read-out and setting: the figure for B4 is 92.2.

In another test the target is T1, human CCR8. Put plainly: FACS, hybridoma supernatant on CHO-K1-human CCR8 cells. On the procedure:
as §2, §3
On to B1, for which the “Binding Ratio (GFP + MFI)/(GFP - MFI)” value came out at 345.
On to B2, for which the “Binding Ratio (GFP + MFI)/(GFP - MFI)” value was 413.
As for B3, the “Binding Ratio (GFP + MFI)/(GFP - MFI)” value was determined as 170.
On the same count and under the same terms, with B11 the figure was 34.4; with B4, 168.

The target of another test is T2, human CCR8. Put plainly: FACS, competition with CCL1 on CHO-K1-human CCR8 cells.
Take B7: the IC50 came to 247 pM and the “Max Inhibition (%)” value is 99.3%.
The matching figures for B8: 170 pM and 100%.
In the case of B9, the half-inhibitory concentration (IC50) was 231 pM and the “Max Inhibition (%)” value was found to be 99.4%.
The matching figures for B10: 146 pM and 99.6%.

The target of another test is T2, human CCR8. The test is described as follows: FACS, competition with AF647-human CCL1 on CHO-K1-human CCR8 cells.
With B5, the IC50 is 358 pM and the “Max Inhibition (%)” value amounted to 88.4%.
The matching figures for B6: 333 pM and 88.2%.

For a further test, the target named is T1, human CCR8. The test is described as follows: FACS competition, hybridoma supernatant with 4 nM AF647-human CCL1 on human CCR8 cells.
For B1, the “Inhibition Rate (%)” value turned out to be 84.8%.
Still for that read-out and setting: with B2 the figure was 88.9%; with B3, 99.2%; with B11, 95.1%.
Take B4: the “Inhibition Rate (%)” value was found to be 99.1%.

These data come from patent US20250034266A1 (ZAI LAB SHANGHAI, published 2025).
